Target: FcRn (UniProt P55899 24-297; P61769 21-119, limits assumed)
Assay: method not described; PBPK model input at pH 6.0, source given as 'Unpublished data'

- Kd: 1400 nM
B1: Ab1 (antibody, human IgG4 S228P, kappa)
heavy: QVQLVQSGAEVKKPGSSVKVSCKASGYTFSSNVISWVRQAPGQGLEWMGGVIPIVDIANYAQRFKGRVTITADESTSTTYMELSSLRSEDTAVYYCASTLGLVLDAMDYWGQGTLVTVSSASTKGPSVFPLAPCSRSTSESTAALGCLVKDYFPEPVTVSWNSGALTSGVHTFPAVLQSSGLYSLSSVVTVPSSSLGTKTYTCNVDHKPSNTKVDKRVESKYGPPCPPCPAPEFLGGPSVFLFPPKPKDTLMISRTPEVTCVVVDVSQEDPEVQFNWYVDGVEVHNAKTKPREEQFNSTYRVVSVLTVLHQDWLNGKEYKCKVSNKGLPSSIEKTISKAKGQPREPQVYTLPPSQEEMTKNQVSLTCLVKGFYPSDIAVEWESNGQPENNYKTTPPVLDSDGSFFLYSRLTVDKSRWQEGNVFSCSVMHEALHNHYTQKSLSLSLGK
light: ETVLTQSPGTLSLSPGERATLSCRASQSLGSSYLAWYQQKPGQAPRLLIYGASSRAPGIPDRFSGSGSGTDFTLTISRLEPEDFAVYYCQQYADSPITFGQGTRLEIKRTVAAPSVFIFPPSDEQLKSGTASVVCLLNNFYPREAKVQWKVDNALQSGNSQESVTEQDSKDSTYSLSSTLTLSKADYEKHKVYACEVTHQGLSSPVTKSFNRGEC
notes: Human IgG4 (S228P, Eu numbering) / kappa anti-TGF-beta antibody; also called GC2008; copies: 2 + 2
